Test results from patent US20200147161A1 (University of Texas, published 2020).
One block for each binder: values may come before it.

Legend:
HLA-A2 on T2 cells [1] = biological target: T1, HLA-A2 on T2 cells (human); experiment: HLA-A2 stabilisation on T2 cells, 18 hours, flow cytometry, FI index
T1 construct: The text of the assay says only 'HLA-A2'; also called HLA-A2 allele
Procedure: The peptides were synthesized and pulsed with T2 cells with a series of diluted concentrations for 18 hours. After incubation, the HLA-A2 expression level of T2 was detected by flow cytometry and the FI index was calculated. The M27 peptide was used as a weak binding peptide control and the M26 peptide was used as a strong binding peptide control.

[2] = biological target: T2, VCY; VCY-37 peptide peptide on HLA-A*02:01 (human); experiment: multimer staining
T2 peptide: KVAEKGEAV

[3] = biological target: T3, VCX/Y family (VCX1, VCX2, VCX3A, VCX3B, VCY); VCX54 peptide peptide on HLA-A*02:01 (human); experiment: multimer staining
T3 peptide: GAATKMAAV

HLA-A2 on T2 cells [4] = biological target: T1, HLA-A2 on T2 cells; experiment: HLA-A2 stabilisation on T2 cells, 18 hr, flow cytometry, fluorescence index
Procedure: The predicted peptides were synthesized and co-cultured with T2 cells with a series of diluted concentrations. DMSO without peptide or with the same concentration of negative binding to HLA-A2 peptide were used as control. After 18 hr incubation, the HLA-A2 expression was detected by flow cytometer. The fluorescence index (FI) was calculated as follows: FI=(mean fluorescence with the given peptide−mean fluorescence without peptide)/(mean fluorescence without peptide). […] The VCX54 epitope is found in all members of the VCX/Y family including VCX1, VCX2, VCX3A, VCX3B, or VCY which are expressed in various lung cancer cells (FIG. 1B).

binding result (HLA-A2 on T2 cells [1]): binds
Binder: KMAAVEAPEA (Synthetic 10-mer) [VCX-58 peptide (KMAAVEAPEA)]

binding result [2]: recognises
B1: VCY-37 CTL TCR (TCR, V domains shown)
Valpha: AQKVTQAQTEISVVEKEDVTLDCVYETRDTTYYLFWYKQPPSGELVFLIRRNSFDEQNEISGRYSWNFQKSTSSFNFTITASQVVDSAVYFCALSLLSYNTDKLIFGTGTRLQVFP
Vbeta: DTGVSQDPRHKITKRGQNVTFRCDPISEHNRLYWYRQTLGQGPEFLTYFQNEAQLEKSRLLSDRFSAERPKGSFSTLEIQRTEQGDSAMYLCASSTPGPSGANVLTFGAGSRLTVL

binding result [3]: recognises
B2: VCX54 CTL Clone-7 TCR (TCR, V domains shown)
Valpha: AQKITQTQPGMFVQEKEAVTLDCTYDTSDPSYGLFWYKQPSSGEMIFLIYQGSYDQQNATEGRYSLNFQKARKSANLVISASQLGDSAMYFCAMITSGNTGKLIFGQGTTLQVKP
Vbeta: AAGVIQSPRHLIKEKRETATLKCYPIPRHDTVYWYQQGPGQDPQFLISFYEKMQSDKGSIPDRFSAQQFSDYHSELNMSSLELGDSALYFCASSPPGGGRTEAFFGQGTRLTVV

binding result (HLA-A2 on T2 cells [1]): binds
Binder: KVAEKGEAV (Synthetic 9-mer from VCY) [VCY-37 peptide (KVAEKGEAV)]

binding result (HLA-A2 on T2 cells [4]): binds
B3: VCX54 peptide (GAATKMAAV) (peptide)
peptide: GAATKMAAV
notes: Synthetic 9-mer shared by all VCX/Y family members; added to T2 cells in the HLA-A2 stabilisation assay; also called GAATKMAAV (54)
